{
  "source": "patent US20260209761",
  "about": "“RNA-GUIDED ENDONUCLEASE SYSTEM AND USE THEREOF IN GENE EDITING” (HARBIN INSTITUTE OF TECHNOLOGY, published 2026)",
  "binders": {"B1": {"name": "FbRAD1 RAGATH-18-associated RNA (ssRNA)", "RNA": "CUAAAACGCAAACGUAAGUAUGUACCGAAGGCUAUUUUCGGGAAUUUACGACUAUGGAGUGUACAAGAACUUGUGAGUAGAUAUGAUUUCGGUCAAUCCAAAGCAUACACGAUGAAAUAGUAAGUAAUGUUCGUGAGAACUUACAUUAUCUCGAUGUGAGCAUAUUUAAUCACAUUUUGAGUGGCAG"}},
  "target": "T1, FbRAD1/ISFba1 (RHS75625.1) (Firmicutes bacterium AM43-11BH)",
  "T1 chain": "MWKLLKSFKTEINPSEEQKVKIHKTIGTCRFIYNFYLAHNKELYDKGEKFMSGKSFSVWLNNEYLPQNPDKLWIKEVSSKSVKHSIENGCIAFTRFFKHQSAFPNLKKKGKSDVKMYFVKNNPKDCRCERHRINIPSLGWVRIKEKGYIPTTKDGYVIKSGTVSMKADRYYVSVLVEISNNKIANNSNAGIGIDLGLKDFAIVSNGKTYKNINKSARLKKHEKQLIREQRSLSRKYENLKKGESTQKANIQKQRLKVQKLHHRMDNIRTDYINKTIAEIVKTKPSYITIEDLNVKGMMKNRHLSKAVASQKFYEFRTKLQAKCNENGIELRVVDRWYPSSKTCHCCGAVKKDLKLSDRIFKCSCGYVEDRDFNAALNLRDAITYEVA",
  "test": "co-purified RNA, degraded by RNase not DNase; about 180 nt; RNA-seq",
  "conditions": "tags: GST (cleaved by PreScission), C-terminal 6His per expression cassette; stem loop, long hairpin with inner loop and pseudoknot (predicted)",
  "data": [
    {"binder": "B1", "values": [
      {"measurement": "binding result", "value": "binds"}
    ]}
  ]
}
